Tests used:
[1] = target: T1, recombinant hemagglutinin HA1 subunit (rHA, H5) (Influenza A virus A/Vietnam/1203/2004 …, UniProt Q5EP31 17-346); test: BLI; rHA immobilized; apparent KD; BLI at 30 C in sodium-potassium phosphate buffer pH 7.4 ([…]; settings: protein: commercial, label: none (rHA), 5'-biotin (vHA BLI)
[2] = target: T1, recombinant hemagglutinin HA1 subunit …; test: BLI; 50 nM control, reference signal; BLI at 30 C in sodium-potassium phosphate buffer pH 7.4 ([…]; settings: protein: commercial; label: none (rHA); 5'-biotin (vHA BLI)

Question: How did the Kd [1] turn out when TTGGGGTTATTTTGGGAGGGCGGGGGTT (structured_DNA) [RHA0385] was run?
Answer: The Kd was 0.6 ± 0.3 nM.

Question: For GGGTTATTTTGGGAGGGCGGG (structured_DNA) [G7nt], which Kd ([1]; parallel G4, 74% monomer) is on record?
Answer: Its Kd is 0.7 ± 0.3 nM.

Question: With TTGGGGTTAGGGAGGGCGGGGGTT (structured_DNA) [G7-TTA_A_C] as the binder, how does the Kd ([1]; parallel G4, 86% monomer) read?
Answer: The Kd was 0.4 ± 0.2 nM.

Question: For TTGGGGTTATTTTGGGAGGGCGGG (structured_DNA) [G7n3t], which Kd ([1]; parallel G4, 100% monomer) is on record?
Answer: Its Kd is 0.4 ± 0.2 nM.

Question: Does CGACGCACCATTTGTTTAATATGTTTTTTAATTCCCCTTGTGGTGCGTCG (ssDNA) [control oligonucleotide] bind [2]?
Answer: Result: no binding

Question: GGGTTATTTTGGGAGGGCGGGGGTT (structured_DNA) [G7n5t] was tested. Which Kd ([1]; parallel G4, 74% monomer) did it give?
Answer: Its Kd is 0.3 ± 0.2 nM.

Question: Which Kd [1] does the source give for GGGTGGGTGGGTGGG (structured_DNA) [G7nt-T_T_T] here?
Answer: Its Kd is 0.7 ± 0.2 nM.

Question: How did the Kd [1] turn out when GGGAGGGTGGGTGGG (structured_DNA) [G7nt-A_T_T] was run?
Answer: Its Kd is 0.4 ± 0.2 nM.

Question: Which Kd [1] does the source give for GGGTGGGAGGGTGGG (structured_DNA) [G7nt-T_A_T] here?
Answer: Its Kd is 0.6 ± 0.2 nM.

Question: For GGGTGGGTGGGAGGG (structured_DNA) [G7nt-T_T_A], which Kd [1] is on record?
Answer: The Kd was 0.8 ± 0.2 nM.

Question: Which Kd [1] does the source give for GGGAGGGAGGGAGGG (structured_DNA) [G7nt-A_A_A] here?
Answer: Its Kd is 0.6 ± 0.4 nM.

Question: For TTGGGGTTATTAAGGGAGGGCGGGGGTT (structured_DNA) [G7-TTATTAA_A_C], which Kd ([1]; parallel G4, 77% monomer) is on record?
Answer: Its Kd is 0.4 ± 0.2 nM.
